A short description of data set [1]: In vivo half-life measurement in rats (Human relaxin-2 ELISA of blood samples). Also on record: species or system Sprague Dawley (SD) rats. The note with it: SD rats, caudal vein injection, 0.5 mg/kg/rat. The procedure: A total of 12 experimental Sprague Dawley (SD) rats (6 male and 6 female) were used in this test (purchased from SINO-BRITSH SIPPR/BK LAB. ANIMAL LTD., CO, Certificate No.: SCXK (Shanghai) 2008-0016, 160-180 g), and the maintenance environment was SPF grade. SD rats were kept for 3 days in the laboratory environment, at a temperature of 20-25° C., with a humidity of 40-60%. The wild-type human relaxin analog 800828 (WT, prepared in Example 29) with the original sequence was used as a positive control in this test.
Rats were randomly divided into 3 groups, with 4 rats in each group, half males and half females. Control (saline) and human relaxin (analog 800814, WT 800828) were injected into the caudal vein of the rats (4 rats/sample) with a dose of 0.5 mg/kg/rat. Blood samples were taken from the rats' orbital sinuses at 0 h, 0.03 h, 0.08 h, 0.25 h, 0.5 h, 1 h, 1.5 h, 2 h, 4 h, 6 h and 8 h after the injections. Blood samples were centrifuged, and the supernatant was collected and stored at −20° C. for further analysis. After blood collection, the content of relaxin in the blood samples was detected using the Human relaxin-2 Quantikine ELISA Kit (R&D). The T1/2 of the test drug was calculated by T1/2 formula and EXCEL.
On the technique in general: ELISA stands for enzyme-linked immunosorbent assay.

The subject of a further data set is ICR mice. Description: In vivo biological activity: pubis width in estradiol-primed female ICR mice. The note with it: s.c. 6 μg/100 μl/mouse, 40 hours later, ratio to solvent control group (=1). The procedure: ICR mice (female, purchased from SINO-BRITSH SIPPR/BK LAB. ANIMAL LTD., CO, Certificate No.: SCXK (Shanghai) 2008-0016, 18-20 g) were used in this test, and the maintenance environment was SPF grade. After their purchase, ICR mice were kept in the laboratory environment for two weeks in the following conditions: illumination: 12/12-hour light/dark cycle regulation, temperature: 20-25° C.; humidity: 40-60%. The wild-type human relaxin analog 800828 (WT, prepared in Example 29) with the original sequence was used as a positive control in this test.
One week before the experiment, each female ICR mouse was subcutaneously injected with 5 μg/100 μ1/animal of β-estradiol (water-insoluble, slightly soluble in oil), which was mixed with olive oil. Six days later, ICR mice with a body weight less than 22 g were excluded, and the rest of the animals were equally divided into groups according to body weight. The animals were subcutaneously injected with relaxin 800828 (WT) ([…]/100 μl/mouse), 800814 (6 μg/100 μl/mouse) or 0.1% benzopurpurine 4B saline (solvent control group). Relaxin 800828 (WT) and 800814 were dissolved in physiological saline containing 0.1% benzopurpurin 4B. 40 hours later, the pubic bones were removed, skin and muscle were removed from the bone, and the pubis width was measured under microscope. […]

For another data set, the system named is THP-1 cells. As to the kind of experiment: In vitro bioactivity assay: cAMP production induced in THP-1 cells (cAMP ELISA). It is filed as cell-based. The note with it: 30 min incubation, forskolin + IBMX, average of three experiments, listed as 800828 (WT). The procedure: The disclosed human relaxin analog (800814) binds to the receptor on THP-1 cells, and induces the production of cAMP in THP-1 cells. To determine the in vitro activity of human relaxin analog (800814), the generation of cAMP was detected. The wild-type human relaxin analog 800828 (WT) (prepared in Example 29) with the original sequence was used in this test as a positive control.
The cells used in the experiments, i.e., THP-1 (ATCC, Product Number: TIB-202™), were cultured in suspension at 37° C., 5% CO2, and used for experiments or passage when the cells were preferably in the logarithmic growth phase. THP-1 cells can be passaged every 2-3 days, with a dilution ratio of 1:3 to 1:4. The medium was RPMI1640, with 0.05 mM b-mercaptoethanol and 10% FBS. On the day of the experiment, THP-1 cells in logarithmic growth phase were collected by centrifugation, and resuspended in DMEM/F12. The cell density was adjusted to 2×10^6 cells/ml, and the cells were seeded in a 96-well plate (50 μl each well) and incubated in a 37° C. incubator for 30 minutes. […] The content of cAMP was detected with a CAMP ELISA KIT (CELL BIOLABS).
Data obtained in the above experiment was fit to a nonlinear curve using Graphpad Prism, and the EC50 value (ng/ml) of CAMP induced in the THP-1 cells by human relaxin analog (800814) was determined.
(cAMP levels reflect the balance of adenylyl cyclase and phosphodiesterase activity.)

We go through 2 compounds from patent US20160326230A1, “HUMAN RELAXIN ANALOGUE, PHARMACEUTICAL COMPOSITION OF SAME, AND PHARMACEUTICAL APPLICATION OF SAME” (SHANGHAI HENGRUI PHARMACEUTICAL CO., LTD., priority 2013, published 2016).

Broadly, the half-life is the time in which the quantity being followed falls by half.

As to `CC[C@H](C)[C@@H]1NC(=O)[C@H](C)NC(=O)[C@H]([C@@H](C)CC)NC(=O)[C@H](CCC(N)=O)NC(=O)[C@H](C)NC(=O)[C@H](CCCNC(=N)N)NC(=O)[C@H](C(C)C)NC(=O)[C@H](CC(C)C)NC(=O)[C@H](CC(=O)O)NC(=O)[C@H](CCCNC(=N)N)NC(=O)CNC(=O)[C@@H](NC(=O)[C@H](CC(C)C)NC(=O)[C@H](CCCCN)NC(=O)[C@@H](NC(=O)[C@@H](NC(=O)[C@H](CCC(=O)O)NC(=O)[C@H](CCC(=O)O)NC(=O)[C@H](CCSC)NC(=O)[C@H](Cc2c[nH]c3ccccc23)NC(=O)[C@H](CO)NC(=O)[C@@H](N)CC(=O)O)C(C)C)[C@@H](C)CC)CSSC[C@@H]2NC(=O)[C@@H](NC(=O)[C@H](CCCCN)NC(=O)[C@H](CC(N)=O)NC(=O)[C@H](C)NC(=O)[C@H](CC(C)C)NC(=O)[C@H](C)NC(=O)[C@H](CO)NC(=O)[C@H](Cc3ccc(O)cc3)NC(=O)[C@H](CC(C)C)NC(=O)[C@@H](N)CC(=O)O)CSSC[C@H](NC(=O)CNC(=O)[C@H](C(C)C)NC(=O)[C@H](Cc3c[nH]cn3)NC2=O)C(=O)N[C@@H]([C@@H](C)O)C(=O)N[C@@H](CCCCN)C(=O)N[C@@H](CCCNC(=N)N)C(=O)N[C@@H](CO)C(=O)N[C@@H](CC(C)C)C(=O)N[C@@H](C)C(=O)N[C@@H](CCCNC(=N)N)C(=O)N[C@@H](Cc2ccccc2)C(=O)N[C@H](C(=O)O)CSSC[C@@H](C(=O)NCC(=O)N[C@@H](CCSC)C(=O)N[C@@H](CO)C(=O)N[C@H](C(=O)N[C@@H](Cc2c[nH]c3ccccc23)C(=O)N[C@@H](CO)C(=O)O)[C@@H](C)O)NC1=O` [relaxin 800814], the T1/2 entry in data set [1] is given as “does not affect its half-life”. Moreover, in data set [1] (both sexes, Sprague Dawley, supernatant of centrifuged blood, iv), the half-life is 52.8 min.
In the case of “relaxin 800828: wild-type human relaxin with the original sequence, expressed in E. coli, refolded and digested; positive control; precursor SEQ ID NO: 23”, the relative pubic width in the data set with ICR mice was 1.24. For the same compound, in the data set on THP-1 cells, the “EC50 of cAMP induced in THP-1 cells” value amounted to 3.05 ng/mL. The T1/2 in data set [1] came out at 52.2 min.
